Patent US20220135701A1 (Genentech, published 2022)
Where two headings read alike, the source gives them in different places.

Tests used:
[1] = biological target: T1, human MerTK on human macrophages (human, UniProt Q12866 21-999); assay: cell-based or functional assay
T1 sequence: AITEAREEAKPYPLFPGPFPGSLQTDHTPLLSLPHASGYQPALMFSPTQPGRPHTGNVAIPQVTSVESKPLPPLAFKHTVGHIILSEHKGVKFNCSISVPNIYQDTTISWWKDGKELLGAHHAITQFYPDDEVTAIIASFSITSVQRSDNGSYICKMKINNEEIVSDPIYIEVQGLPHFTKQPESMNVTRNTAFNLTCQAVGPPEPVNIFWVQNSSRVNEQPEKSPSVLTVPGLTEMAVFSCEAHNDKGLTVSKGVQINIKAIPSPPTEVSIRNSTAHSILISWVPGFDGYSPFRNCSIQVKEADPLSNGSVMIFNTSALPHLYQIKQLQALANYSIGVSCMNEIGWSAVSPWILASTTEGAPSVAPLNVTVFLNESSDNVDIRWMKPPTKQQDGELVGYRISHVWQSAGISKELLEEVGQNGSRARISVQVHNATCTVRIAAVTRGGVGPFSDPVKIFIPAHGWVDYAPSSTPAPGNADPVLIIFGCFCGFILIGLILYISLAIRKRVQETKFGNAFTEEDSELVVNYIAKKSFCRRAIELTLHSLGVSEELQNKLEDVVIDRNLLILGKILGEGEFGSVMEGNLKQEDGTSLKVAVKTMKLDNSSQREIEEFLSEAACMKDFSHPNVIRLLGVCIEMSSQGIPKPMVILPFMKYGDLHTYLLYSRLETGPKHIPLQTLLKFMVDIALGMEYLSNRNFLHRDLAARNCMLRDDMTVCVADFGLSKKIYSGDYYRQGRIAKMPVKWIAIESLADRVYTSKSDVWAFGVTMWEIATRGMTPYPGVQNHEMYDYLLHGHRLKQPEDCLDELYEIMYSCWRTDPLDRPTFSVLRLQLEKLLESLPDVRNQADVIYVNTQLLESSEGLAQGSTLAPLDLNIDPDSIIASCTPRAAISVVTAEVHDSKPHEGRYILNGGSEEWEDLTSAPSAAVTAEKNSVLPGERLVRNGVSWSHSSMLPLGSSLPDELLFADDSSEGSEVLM

[2] = biological target: T1, human MerTK on human macrophages; assay: cell-based or functional assay; remark: listed apart in the source
[3] = biological target: T2, mouse MerTK on mouse macrophages (mouse, UniProt Q60805 19-994); assay: cell-based or functional assay
T2 sequence (looked up): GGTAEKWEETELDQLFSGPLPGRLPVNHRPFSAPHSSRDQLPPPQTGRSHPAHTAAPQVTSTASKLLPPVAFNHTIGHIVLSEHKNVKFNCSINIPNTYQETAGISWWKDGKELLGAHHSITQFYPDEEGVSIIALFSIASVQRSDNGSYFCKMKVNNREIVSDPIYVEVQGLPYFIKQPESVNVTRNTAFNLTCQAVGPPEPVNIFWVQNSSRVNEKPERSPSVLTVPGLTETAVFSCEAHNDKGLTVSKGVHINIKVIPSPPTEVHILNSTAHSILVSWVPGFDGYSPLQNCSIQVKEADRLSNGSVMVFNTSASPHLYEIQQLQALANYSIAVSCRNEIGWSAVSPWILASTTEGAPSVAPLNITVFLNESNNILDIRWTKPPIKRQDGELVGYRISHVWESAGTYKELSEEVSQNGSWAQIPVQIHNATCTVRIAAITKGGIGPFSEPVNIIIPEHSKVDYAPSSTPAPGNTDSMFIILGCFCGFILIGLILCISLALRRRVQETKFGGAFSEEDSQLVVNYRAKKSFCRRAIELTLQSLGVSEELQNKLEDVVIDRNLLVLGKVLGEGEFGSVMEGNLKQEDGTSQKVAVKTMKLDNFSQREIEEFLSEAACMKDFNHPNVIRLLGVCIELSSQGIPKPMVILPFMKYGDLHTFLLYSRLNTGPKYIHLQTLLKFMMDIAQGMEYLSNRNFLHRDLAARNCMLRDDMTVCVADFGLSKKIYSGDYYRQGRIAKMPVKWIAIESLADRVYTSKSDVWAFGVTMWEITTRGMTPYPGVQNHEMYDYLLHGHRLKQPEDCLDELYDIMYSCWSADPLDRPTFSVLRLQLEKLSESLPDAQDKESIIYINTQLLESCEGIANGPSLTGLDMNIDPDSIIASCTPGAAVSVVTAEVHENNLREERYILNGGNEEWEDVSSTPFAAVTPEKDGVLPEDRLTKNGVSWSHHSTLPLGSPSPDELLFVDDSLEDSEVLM

rat MerTK = biological target: T3, rat MerTK (rat, UniProt P57097 23-496, limits assumed); assay: SPR BIAcore T200, Ab captured, 37C
T3 construct: Soluble analyte in SPR
T3 sequence (looked up): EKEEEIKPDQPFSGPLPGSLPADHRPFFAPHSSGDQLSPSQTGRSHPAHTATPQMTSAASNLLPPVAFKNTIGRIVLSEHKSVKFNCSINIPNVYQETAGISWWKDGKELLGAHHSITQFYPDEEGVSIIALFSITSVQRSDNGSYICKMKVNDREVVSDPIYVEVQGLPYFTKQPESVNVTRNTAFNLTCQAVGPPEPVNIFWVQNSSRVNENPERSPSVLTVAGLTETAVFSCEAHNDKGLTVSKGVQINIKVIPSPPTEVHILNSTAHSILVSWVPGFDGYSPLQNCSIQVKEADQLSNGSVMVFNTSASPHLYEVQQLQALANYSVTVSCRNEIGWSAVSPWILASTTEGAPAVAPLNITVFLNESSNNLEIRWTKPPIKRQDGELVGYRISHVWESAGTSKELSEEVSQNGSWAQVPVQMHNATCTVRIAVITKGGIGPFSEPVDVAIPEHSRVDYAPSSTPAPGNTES
Procedure: Each rabbit and humanized antibody was subjected to a binding assay to determine its affinity to MerTK derived from various species.
All binding affinity determinations were obtained using Surface Plasmon Resonance (SPR) measurements from a BIAcore™-T200 instrument. Briefly, each rabbit or humanized antibody was captured to achieve approximately 100 RU (Response Units). Then, 3-fold serial dilutions of MerTK from various species (0.4 nM to 100 nM) diluted in HBS-EP buffer (0.01M HEPES pH 7.4, 0.15M NaCl, 3 mM EDTA and 0.05% v/v surfactant P20) was injected into the BIAcore™-T200 instrument at 25° C. or 37° C. with a flow rate of 30 μl/min. Association rates (kₒₙ) and dissociation rates (koff) were calculated using a simple one-to-one Langmuir binding model (BIAcore T200 evaluation software version 2.0). The equilibrium dissociation constant (KD) was calculated as the ratio koff/kₒₙ.

B1: h10F7.v16 (antibody, V domains shown)
VH: EVQLVESGGGLVQPGGSLRLSCAVSGFSLSGYAMSWVRQAPGKGLEYIGVISSSGSSYYPSWAKGRFTISKDNSKNTLYLQMGSLRAEDMAVYYCARVQFYVGYAVYGYGIIDRLDLWGQGTLVTVSS
VL: DIVLTQSPDSLAVSLGERATINCQSSKSVYNNNWLSWYQQKPGQPPKLLIYRASTLESGVPDRFSGSGSGTDFTLTISSLQAEDVAVYFCAGGYSSSSSANAFGGGTKVEIK
notes: Humanized, human IgG1; also called 10F7 Fully Humanized; 10F7 Humanized polished mAb
B1 was tested, and the “IC50 (nM), efferocytosis by human macrophages, Average (3 Donors)” value [1] was 0.41 nM, the “IC50 (nM), efferocytosis by human macrophages, Donor A” value [1] was 0.42 nM and the “IC50 (nM), efferocytosis by human macrophages, Donor B” value [1] was 0.53 nM. The “IC50 (nM), efferocytosis by human macrophages, Donor C” value [1] was 0.27 nM, the “Max Inhibition (%), efferocytosis by human macrophages, Average (3 Donors)” value [1] was 69% and the “Max Inhibition (%), efferocytosis by human macrophages, Donor A” value [1] was 76%. For the same binder, the “Max Inhibition (%), efferocytosis by human macrophages, Donor B” value [1] was 73%, the “Max Inhibition (%), efferocytosis by human macrophages, Donor C” value [1] was 60% and the “IC50 (nM), efferocytosis by human macrophages, Average (3 Donors)” value [2] was 0.41 nM. For the same binder, the “IC50 (nM), efferocytosis by mouse macrophages, Average” value [3] was 0.91 nM and the Kd (rat MerTK) was 3200 pM.
